EC50 (pM), cytotoxicity of the negative control antibody against MT-2 cells expressing CCR4 with T-LAK effector cells (calcein release) and Emax (%), cytotoxicity of the negative control antibody against MT-2 cells expressing CCR4 with T-LAK effector cells (calcein release) data for 1 substance are collected here from patent publication US20260078182A1.

The target in this assay is CCR4 (human) (UniProt P51679). Kind of assay: cell-based or functional assay.
Chain of UniProt P51679 (P51679 whole entry): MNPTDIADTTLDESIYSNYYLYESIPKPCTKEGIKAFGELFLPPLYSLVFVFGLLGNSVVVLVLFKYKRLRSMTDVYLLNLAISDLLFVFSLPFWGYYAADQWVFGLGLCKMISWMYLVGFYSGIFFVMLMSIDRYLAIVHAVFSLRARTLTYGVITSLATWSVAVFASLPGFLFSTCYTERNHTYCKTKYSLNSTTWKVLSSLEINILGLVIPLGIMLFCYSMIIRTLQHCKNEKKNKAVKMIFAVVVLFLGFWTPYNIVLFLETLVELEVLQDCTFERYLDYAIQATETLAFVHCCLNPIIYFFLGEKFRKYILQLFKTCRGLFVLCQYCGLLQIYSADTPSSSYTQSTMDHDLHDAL

On to mogamulizumab (antibody), for which the EC50 (pM), cytotoxicity of the negative control antibody against MT-2 cells expressing CCR4 with T-LAK effector cells (calcein release) is 1140 pM and the Emax (%), cytotoxicity of the negative control antibody against MT-2 cells expressing CCR4 with T-LAK effector cells (calcein release) was 8.5%.
